Target: Amyloid beta1-42 standard (from β-Amyloid1-42 ELISA, Human kit, Sigma BE0200), P05067
Sequence (P05067 whole entry, looked up, tested part not stated): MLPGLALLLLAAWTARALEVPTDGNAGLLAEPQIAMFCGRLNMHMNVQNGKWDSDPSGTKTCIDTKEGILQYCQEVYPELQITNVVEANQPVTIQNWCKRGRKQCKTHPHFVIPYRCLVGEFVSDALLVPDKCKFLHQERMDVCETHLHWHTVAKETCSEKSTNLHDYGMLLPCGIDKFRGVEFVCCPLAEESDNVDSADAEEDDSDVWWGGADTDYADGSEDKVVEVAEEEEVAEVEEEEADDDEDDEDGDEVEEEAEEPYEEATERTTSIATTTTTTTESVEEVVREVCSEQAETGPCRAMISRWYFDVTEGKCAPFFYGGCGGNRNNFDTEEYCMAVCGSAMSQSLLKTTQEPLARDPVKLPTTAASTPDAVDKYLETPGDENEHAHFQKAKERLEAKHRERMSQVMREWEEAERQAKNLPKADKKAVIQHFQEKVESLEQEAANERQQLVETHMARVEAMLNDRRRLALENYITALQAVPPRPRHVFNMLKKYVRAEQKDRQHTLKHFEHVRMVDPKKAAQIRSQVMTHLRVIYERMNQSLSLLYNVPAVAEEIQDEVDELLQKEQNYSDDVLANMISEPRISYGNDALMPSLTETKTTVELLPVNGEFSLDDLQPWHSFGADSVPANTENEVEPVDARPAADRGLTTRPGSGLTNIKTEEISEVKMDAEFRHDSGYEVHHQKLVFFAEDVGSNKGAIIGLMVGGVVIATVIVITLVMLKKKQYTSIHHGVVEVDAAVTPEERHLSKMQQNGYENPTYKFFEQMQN

B1: Tissue kallikrein (SEQ ID NO:1) (protein)
chain: IIGGRECEKDSHPWQVAIYHYSSFQCGGVLVDPKWVLTAAHCKNDNYQVWLGRHNLFENEVTAQFFGVTADFPHPGFNLSLLKNHTKADGKDYSHDLMLLRLQSPAKITDAVKVLELPTQEPELGSTCQASGWGSIEPGPDDFEFPDEIQCVELTLLQNTFCADAHPDKVTESMLCAGYLPGGKDTCMGDSGGPLICNGMWQGITSWGHTPCGSANKPSIYTKLIFYLDWINDTITENP
- % Cleavage (ELISA of remaining Aβ1-42), KLK1 1 pg/mL, 3 hrs: 0%
- % Cleavage (ELISA of remaining Aβ1-42), KLK1 1 pg/mL, 18 hrs: 0%
- % Cleavage (ELISA of remaining Aβ1-42), KLK1 10 pg/mL, 3 hrs: 0%
- % Cleavage (ELISA of remaining Aβ1-42), KLK1 10 pg/mL, 18 hrs: 15%
- % Cleavage (ELISA of remaining Aβ1-42), KLK1 100 pg/mL, 3 hrs: 0%
- % Cleavage (ELISA of remaining Aβ1-42), KLK1 100 pg/mL, 18 hrs: 19.5%
- % Cleavage (ELISA of remaining Aβ1-42), KLK1 1 ng/mL, 3 hrs: 19.6%
- % Cleavage (ELISA of remaining Aβ1-42), KLK1 1 ng/mL, 18 hrs: 50%
- % Cleavage (ELISA of remaining Aβ1-42), KLK1 10 ng/mL, 3 hrs: 36.6%
- % Cleavage (ELISA of remaining Aβ1-42), KLK1 10 ng/mL, 18 hrs: 88.4%
- % Cleavage (ELISA of remaining Aβ1-42), KLK1 100 ng/mL, 3 hrs: 71.7%
- % Cleavage (ELISA of remaining Aβ1-42), KLK1 100 ng/mL, 18 hrs: 99.8%
- % Cleavage (ELISA of remaining Aβ1-42), KLK1 1 µg/mL, 3 hrs: 92.1%
- % Cleavage (ELISA of remaining Aβ1-42), KLK1 1 µg/mL, 18 hrs: 100%

— patent US20100226910
